{"source": "paper PMC10786891", "about": "“Massively parallel profiling of RNA-targeting CRISPR-Cas13d”", "binders": {"B1": {"name": "target 1 G5C,C22U (mixed)", "RNA 1": "CACCCGUGCAAAAAUGCAGGGGUCUAAAACUGAGCGGAUAACCUCUCUAUGG", "RNA 2": "GGGAAUGGAUCCACAUCUACGAAUUCGUAUCAUAGAGAGGUUAUCCCCUCACCGAGAUCGGAAGAGCACACGU"}, "B2": {"name": "target 1 insG 3' of 19,insG 3' of 3 (mixed)", "RNA 1": "B1 RNA 1", "RNA 2": "GGGAAUGGAUCCACAUCUACGAAUUCGUACCAUGAGAGAGGUUAUCCGCUGCACCGAGAUCGGAAGAGCACACGU"}, "B3": {"name": "target 1 insU 3' of 12,insC 3' of 12 (mixed)", "RNA 1": "B1 RNA 1", "RNA 2": "GGGAAUGGAUCCACAUCUACGAAUUCGUACCAUAGAGAGGUCUUAUCCGCUCACCGAGAUCGGAAGAGCACACGU"}, "B4": {"name": "target 1 insG 3' of 20,insG 3' of 3 (mixed)", "RNA 1": "B1 RNA 1", "RNA 2": "B2 RNA 2 with U33G, G34U"}, "B5": {"name": "target 3 insA 3' of 6,insG 3' of 1 (mixed)", "RNA 1": "CACCCGUGCAAAAUUGCAGGGGUCUAAAACGACCUGAAUAUUUCAGAUCAAA", "RNA 2": "GGGAAUGGAUCCACAUCUACGAAUUCGUUUUUGAUCUGAAAUAUUCAAGGUCGUGCAGAUCGGAAGAGCACACGU"}, "B6": {"name": "target 3 insU 3' of 11,insC 3' of 3 (mixed)", "RNA 1": "B5 RNA 1", "RNA 2": "B5 RNA 2 with A43U, U44A, C46U, A47C, U51C, C52U, G53C"}, "B7": {"name": "target 3 insA 3' of 6,insA 3' of 6 (mixed)", "RNA 1": "B5 RNA 1", "RNA 2": "B5 RNA 2 with G49A, U51G, C52U, G53C"}, "B8": {"name": "target 3 G4U,G19U (mixed)", "RNA 1": "B5 RNA 1", "RNA 2": "GGGAAUGGAUCCACAUCUACGAAUUCGUUUUUUAUCUGAAAUAUUCAUGUCUGCAGAUCGGAAGAGCACACGU"}, "B9": {"name": "target 3 insU 3' of 11,insU 3' of 6 (mixed)", "RNA 1": "B5 RNA 1", "RNA 2": "B5 RNA 2 with A43U, U44A, C46U, A47C, A48U, G49A, U51G, C52U, G53C"}, "B10": {"name": "target 3 del1,del22 (mixed)", "RNA 1": "B5 RNA 1", "RNA 2": "GGGAAUGGAUCCACAUCUACGAAUUCGUUUUGAUCUGAAAUAUUCAGGUUGCAGAUCGGAAGAGCACACGU"}, "B11": {"name": "target 3 G4A,U7G (mixed)", "RNA 1": "B5 RNA 1", "RNA 2": "B8 RNA 2 with U33G, U45G, U48A"}, "B12": {"name": "target 3 insC 3' of 3,insA 3' of 1 (mixed)", "RNA 1": "B5 RNA 1", "RNA 2": "B5 RNA 2 with A48G, G50C, G53A"}, "B13": {"name": "target 3 insA 3' of 21,insC 3' of 21 (mixed)", "RNA 1": "B5 RNA 1", "RNA 2": "GGGAAUGGAUCCACAUCUACGAAUUCGUUUUACUGAUCUGAAAUAUUCAGGUCUGCAGAUCGGAAGAGCACACGU"}, "B14": {"name": "target 3 G3C,A11G (mixed)", "RNA 1": "B5 RNA 1", "RNA 2": "B8 RNA 2 with U33G, A41G, U48G, G49C"}, "B15": {"name": "target 3 C6G,U22C (mixed)", "RNA 1": "B5 RNA 1", "RNA 2": "B8 RNA 2 with U30C, U33G, C46G, U48G"}, "B16": {"name": "target 3 del22 (mixed)", "RNA 1": "B5 RNA 1", "RNA 2": "GGGAAUGGAUCCACAUCUACGAAUUCGUUUUGAUCUGAAAUAUUCAGGUCUGCAGAUCGGAAGAGCACACGU"}, "B17": {"name": "target 3 insG 3' of 9,insA 3' of 2 (mixed)", "RNA 1": "B5 RNA 1", "RNA 2": "B5 RNA 2 with U44G, C46U, A47C, C52A, G53C"}, "B18": {"name": "target 3 insG 3' of 7,insC 3' of 2 (mixed)", "RNA 1": "B5 RNA 1", "RNA 2": "B5 RNA 2 with C46G, A47C, G53C"}, "B19": {"name": "target 3 insU 3' of 13,insU 3' of 4 (mixed)", "RNA 1": "B5 RNA 1", "RNA 2": "GGGAAUGGAUCCACAUCUACGAAUUCGUUUUUGAUCUGAUAAUAUUCAGUGUCUGCAGAUCGGAAGAGCACACGU"}, "B20": {"name": "target 3 insA 3' of 22,insU 3' of 22 (mixed)", "RNA 1": "B5 RNA 1", "RNA 2": "B13 RNA 2 with U31A, A32U, C33U"}, "B21": {"name": "target 3 C6U,A18G (mixed)", "RNA 1": "B5 RNA 1", "RNA 2": "B8 RNA 2 with U33G, A34G, C46U, U48G"}, "B22": {"name": "target 3 insG 3' of 5,insC 3' of 4 (mixed)", "RNA 1": "B5 RNA 1", "RNA 2": "B5 RNA 2 with A48G, G50C, U51G, C52U, G53C"}, "B23": {"name": "target 3 G4A,U22A (mixed)", "RNA 1": "B5 RNA 1", "RNA 2": "B8 RNA 2 with U30A, U33G, U48A"}, "B24": {"name": "target 3 insU 3' of 16,insU 3' of 16 (mixed)", "RNA 1": "B5 RNA 1", "RNA 2": "B13 RNA 2 with A32U, C33G, U34A, G35U, A36C, C38U"}, "B25": {"name": "target 3 insU 3' of 3,insA 3' of 2 (mixed)", "RNA 1": "B5 RNA 1", "RNA 2": "B5 RNA 2 with A48G, G50U, C52A, G53C"}, "B26": {"name": "target 3 insC 3' of 12,insU 3' of 3 (mixed)", "RNA 1": "B5 RNA 1", "RNA 2": "B19 RNA 2 with U40A, A41C, U50G, G51U"}, "B27": {"name": "target 3 insC 3' of 3,insG 3' of 1 (mixed)", "RNA 1": "B5 RNA 1", "RNA 2": "B5 RNA 2 with A48G, G50C"}, "B28": {"name": "target 3 insC 3' of 3 (mixed)", "RNA 1": "B5 RNA 1", "RNA 2": "GGGAAUGGAUCCACAUCUACGAAUUCGUUUUUGAUCUGAAAUAUUCAGGCUCUGCAGAUCGGAAGAGCACACGU"}, "B29": {"name": "target 3 C1G,U7C (mixed)", "RNA 1": "B5 RNA 1", "RNA 2": "B8 RNA 2 with U33G, U45C, U48G, C51G"}, "B30": {"name": "target 3 insA 3' of 10,insC 3' of 10 (mixed)", "RNA 1": "B5 RNA 1", "RNA 2": "B5 RNA 2 with U44C, U45A, C46U, A47U, A48C, G49A, U51G, C52U, G53C"}, "B31": {"name": "target 3 A5C,U7A (mixed)", "RNA 1": "B5 RNA 1", "RNA 2": "B8 RNA 2 with U33G, U45A, A47C, U48G"}, "B32": {"name": "target 3 insA 3' of 8,insU 3' of 5 (mixed)", "RNA 1": "B5 RNA 1", "RNA 2": "B5 RNA 2 with U45A, C46U, A47C, G49U, U51G, C52U, G53C"}}, "note": "Residue numbers refer to the chain shown, from its start. Numbers in names are those of the source."}
{"biological_target": "T1, EsCas13d, nuclease-dead (Eubacterium siraeum, UniProt B0MS50, R295A;H300A;R849A;H854A)", "T1 sequence": "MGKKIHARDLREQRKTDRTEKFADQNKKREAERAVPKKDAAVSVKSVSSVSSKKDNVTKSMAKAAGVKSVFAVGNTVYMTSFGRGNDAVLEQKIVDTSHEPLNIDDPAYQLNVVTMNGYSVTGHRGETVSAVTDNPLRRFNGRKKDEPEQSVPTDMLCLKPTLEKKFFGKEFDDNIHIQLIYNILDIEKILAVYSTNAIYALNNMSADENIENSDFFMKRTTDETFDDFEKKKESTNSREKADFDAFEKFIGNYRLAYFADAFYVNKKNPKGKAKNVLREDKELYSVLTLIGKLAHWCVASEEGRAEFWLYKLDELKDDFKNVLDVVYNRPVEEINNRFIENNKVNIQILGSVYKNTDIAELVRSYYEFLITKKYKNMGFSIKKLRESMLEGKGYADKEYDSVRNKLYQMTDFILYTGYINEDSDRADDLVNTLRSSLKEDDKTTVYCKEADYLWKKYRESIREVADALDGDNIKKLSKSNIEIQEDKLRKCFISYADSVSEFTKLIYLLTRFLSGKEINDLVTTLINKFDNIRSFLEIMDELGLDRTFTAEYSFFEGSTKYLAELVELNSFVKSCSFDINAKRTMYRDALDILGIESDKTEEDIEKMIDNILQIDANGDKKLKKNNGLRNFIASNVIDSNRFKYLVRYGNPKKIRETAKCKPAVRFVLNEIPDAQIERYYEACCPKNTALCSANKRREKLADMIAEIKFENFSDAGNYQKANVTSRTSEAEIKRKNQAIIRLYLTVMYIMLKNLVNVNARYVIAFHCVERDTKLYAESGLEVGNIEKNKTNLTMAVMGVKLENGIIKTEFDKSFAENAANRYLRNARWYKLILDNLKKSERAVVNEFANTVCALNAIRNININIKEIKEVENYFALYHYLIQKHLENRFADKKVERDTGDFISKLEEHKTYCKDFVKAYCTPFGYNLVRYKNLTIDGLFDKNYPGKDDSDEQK", "test": "crRNA (strand 1, pre-loaded); Mg2+; 40 mM Tris-HCl pH 7.5, 150 mM NaCl, 6 mM MgCl2, 1 mM DTT, 0.1% Tween-20, 0.2 mg/ml BSA; 25 C; 10 min per concentration, then washed", "details": "tags: His6-TwinStrep-SUMO cleaved; N-terminal SNAP kept (SNAP-Surface 488); label: 3' end held by stalled T7 RNA polymerase", "units": {"Kd": "nM"}}
{"binder": "B1", "Kd": "22.6 ± 2.9"}
{"binder": "B2", "Kd": "41 ± 2.4"}
{"binder": "B3", "Kd": "27.6 ± 2.9"}
{"binder": "B4", "Kd": "31 ± 9"}
{"binder": "B5", "Kd": "32 ± 11"}
{"binder": "B6", "Kd": "58 ± 9.5"}
{"binder": "B7", "Kd": "4.96 ± 0.355"}
{"binder": "B8", "Kd": "77.5 ± 10"}
{"binder": "B9", "Kd": "95 ± 14.5"}
{"binder": "B10", "Kd": "29 ± 6"}
{"binder": "B11", "Kd": "30.2 ± 3.35"}
{"binder": "B12", "Kd": "83 ± 17"}
{"binder": "B13", "Kd": "47 ± 11.5"}
{"binder": "B14", "Kd": "61 ± 12"}
{"binder": "B15", "Kd": "36.5 ± 6"}
{"binder": "B16", "Kd": "10.3 ± 1.2"}
{"binder": "B17", "Kd": "~102"}
{"binder": "B18", "Kd": "88 ± 17.5"}
{"binder": "B19", "Kd": "49.5 ± 17.5"}
{"binder": "B20", "Kd": "14.6 ± 1.45"}
{"binder": "B21", "Kd": "20.3 ± 2.65"}
{"binder": "B22", "Kd": "7.65 ± 1.2"}
{"binder": "B23", "Kd": "5.71 ± 0.47"}
{"binder": "B24", "Kd": "76.5 ± 12"}
{"binder": "B25", "Kd": "39 ± 5"}
{"binder": "B26", "Kd": "106 ± 34"}
{"binder": "B27", "Kd": "27.1 ± 7.05"}
{"binder": "B28", "Kd": "19.4 ± 2.05"}
{"binder": "B29", "Kd": "73.5 ± 36"}
{"binder": "B30", "Kd": "100 ± 37.5"}
{"binder": "B31", "Kd": "77.5 ± 13.5"}
{"binder": "B32", "Kd": "33.9 ± 3.75"}
